The target in data set [1] is T1, ZLD DBD (MBP-ZLD1117-1487) (UniProt Q9VWC6 1117-1487).
T1 sequence: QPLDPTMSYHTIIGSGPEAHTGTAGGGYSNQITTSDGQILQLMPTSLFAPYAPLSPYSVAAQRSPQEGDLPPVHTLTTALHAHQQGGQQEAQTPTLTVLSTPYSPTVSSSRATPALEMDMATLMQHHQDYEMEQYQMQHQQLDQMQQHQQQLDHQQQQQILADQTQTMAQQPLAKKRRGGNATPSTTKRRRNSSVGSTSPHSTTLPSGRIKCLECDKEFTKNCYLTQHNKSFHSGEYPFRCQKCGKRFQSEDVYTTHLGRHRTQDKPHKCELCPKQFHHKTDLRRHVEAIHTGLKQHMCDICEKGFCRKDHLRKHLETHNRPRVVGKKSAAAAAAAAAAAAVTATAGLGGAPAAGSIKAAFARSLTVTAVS
Nature of the data set: competition.

Data set [2] has as its target T2, ZLD full-length (rZLD) (UniProt Q9VWC6 1-1596). Nature of the data set: competition.
The target of data set [3] is T2, ZLD full-length (rZLD). As to the kind of experiment: competition. This is another data set of the same source.
Data set [4] has as its target T2, ZLD full-length (rZLD). As to the kind of experiment: EMSA.

T2 sequence (Q9VWC6 whole entry): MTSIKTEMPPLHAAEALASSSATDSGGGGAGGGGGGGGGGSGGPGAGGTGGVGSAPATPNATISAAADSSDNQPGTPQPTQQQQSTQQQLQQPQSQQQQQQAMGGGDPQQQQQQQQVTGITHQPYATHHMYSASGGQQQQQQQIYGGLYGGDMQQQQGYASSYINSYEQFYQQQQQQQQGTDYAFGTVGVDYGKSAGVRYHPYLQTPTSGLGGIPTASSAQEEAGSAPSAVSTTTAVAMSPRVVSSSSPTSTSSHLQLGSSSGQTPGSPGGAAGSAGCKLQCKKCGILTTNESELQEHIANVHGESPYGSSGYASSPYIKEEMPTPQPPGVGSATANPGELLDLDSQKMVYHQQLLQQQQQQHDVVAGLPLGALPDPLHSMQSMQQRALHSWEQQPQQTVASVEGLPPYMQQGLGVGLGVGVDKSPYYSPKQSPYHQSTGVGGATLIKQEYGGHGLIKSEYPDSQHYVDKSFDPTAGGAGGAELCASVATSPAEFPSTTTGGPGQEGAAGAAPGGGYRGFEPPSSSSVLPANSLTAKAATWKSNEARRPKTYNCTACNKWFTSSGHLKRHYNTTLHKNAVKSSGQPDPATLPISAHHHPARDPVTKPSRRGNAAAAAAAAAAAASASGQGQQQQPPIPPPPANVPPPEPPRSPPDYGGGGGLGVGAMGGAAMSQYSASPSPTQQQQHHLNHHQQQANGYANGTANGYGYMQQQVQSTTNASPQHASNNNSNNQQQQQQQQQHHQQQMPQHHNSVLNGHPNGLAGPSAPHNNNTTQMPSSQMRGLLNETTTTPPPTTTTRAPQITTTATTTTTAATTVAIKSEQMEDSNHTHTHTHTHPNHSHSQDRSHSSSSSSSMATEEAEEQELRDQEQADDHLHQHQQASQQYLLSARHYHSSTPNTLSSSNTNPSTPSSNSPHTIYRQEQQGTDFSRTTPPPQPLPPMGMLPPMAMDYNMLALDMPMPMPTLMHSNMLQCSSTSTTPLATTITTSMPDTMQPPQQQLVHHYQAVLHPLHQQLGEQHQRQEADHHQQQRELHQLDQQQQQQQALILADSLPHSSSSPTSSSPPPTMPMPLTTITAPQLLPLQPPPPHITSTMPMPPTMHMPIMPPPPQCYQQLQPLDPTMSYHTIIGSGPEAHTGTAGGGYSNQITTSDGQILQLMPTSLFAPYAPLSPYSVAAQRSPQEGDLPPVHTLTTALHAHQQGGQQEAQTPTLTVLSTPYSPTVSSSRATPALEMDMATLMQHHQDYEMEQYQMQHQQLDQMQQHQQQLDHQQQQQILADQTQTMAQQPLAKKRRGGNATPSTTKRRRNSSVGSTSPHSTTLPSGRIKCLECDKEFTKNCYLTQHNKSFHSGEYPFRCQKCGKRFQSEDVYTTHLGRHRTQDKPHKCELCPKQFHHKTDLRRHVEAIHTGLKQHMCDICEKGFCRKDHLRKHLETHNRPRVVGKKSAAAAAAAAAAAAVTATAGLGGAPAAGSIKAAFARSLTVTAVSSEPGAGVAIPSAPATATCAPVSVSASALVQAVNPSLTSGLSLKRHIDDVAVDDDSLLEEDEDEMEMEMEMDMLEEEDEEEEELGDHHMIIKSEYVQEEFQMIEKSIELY

B1: scute wild-type (specific competitor) (dsDNA)
DNA 1: GAGAGAGACTACCTGTGGCTCACT
DNA 2: AGTGAGCCACAGGTAGTCTCTCTC
For the molecule B1, the binding result (in data set [1]; in the data set with ZLD full-length (rZLD) [2]) was “binds” each time.

B2: scute mutant (nonspecific competitor) (dsDNA)
DNA 1: GAGAGAGAGTAGTTCTGGCTCACT
DNA 2: AGTGAGCCAGAACTACTCTCTCTC
As for B2, the binding result with ZLD full-length (rZLD) [3] is given as “no binding”.

B3: bnk DNA (dsDNA)
DNA 1: TCCTTTTTTACTTTCATAGCTTAGGTAGTGATCTCAGGTAGTTTCCCGGAATTAAGTTAGGCTGGGTATCGCCTATCGGGAGCGGCTACCTGAACTTTTGGCACCAGCTGTCGGGGGTGAAAACTGGACCAGGTAGTCTTTAGAAGTGCACCTATATAAG
DNA 2: CTTATATAGGTGCACTTCTAAAGACTACCTGGTCCAGTTTTCACCCCCGACAGCTGGTGCCAAAAGTTCAGGTAGCCGCTCCCGATAGGCGATACCCAGCCTAACTTAATTCCGGGAAACTACCTGAGATCACTACCTAAGCTATGAAAGTAAAAAAGGA
On to B3, for which the binding result with ZLD full-length (rZLD) [4] is listed as “binds”.

Values taken from publication PMC6544384.
